Results: publication PMC9482650, “Quantitative fragmentomics allow affinity mapping of interactomes” (Nature Communications, 2022)
Values belong to the binder of their own block, whether it stands above or below them.

Tests used:
Test in all cases: holdup assay
Set-up in all cases: key: below the threshold = too weak to quantify, mostly under pKd 3.1 to 4
[1] = biological target: T1, APBA2_1, Q99767; conditions: plain residues with an end cap or a label only (N-terminal biotin on a linker: ado-ado)
T1 sequence (Q99767 563-664, limits assumed, looked up): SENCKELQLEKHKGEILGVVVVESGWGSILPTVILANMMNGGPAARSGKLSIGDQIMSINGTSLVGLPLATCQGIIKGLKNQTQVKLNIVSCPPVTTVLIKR

[2] = biological target: T2, ARHGEF11, O15085
T2 sequence (O15085 42-136, limits assumed, looked up): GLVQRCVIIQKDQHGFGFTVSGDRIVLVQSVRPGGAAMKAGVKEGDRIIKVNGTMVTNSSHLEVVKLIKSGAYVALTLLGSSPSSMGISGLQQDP

[3] = biological target: ARHGEF12, Q9NZN5-2; conditions: plain residues with an end cap or a label only (N-terminal biotin on a linker: ado-ado)
[4] = biological target: CASK, O14936; conditions: plain residues with an end cap or a label only (N-terminal biotin on a linker: ado-ado)
[5] = biological target: DLG1_2, Q12959; conditions: plain residues with an end cap or a label only (N-terminal biotin on a linker: ado-ado)
[6] = biological target: DLG1_3, Q12959; conditions: plain residues with an end cap or a label only (N-terminal biotin on a linker: ado-ado)
[7] = biological target: DLG2_2, Q15700; conditions: plain residues with an end cap or a label only (N-terminal biotin on a linker: ado-ado)
[8] = biological target: T3, DLG3_1, Q92796; conditions: plain residues with an end cap or a label only (N-terminal biotin on a linker: ado-ado)
T3 sequence (Q92796 125-227, limits assumed, looked up): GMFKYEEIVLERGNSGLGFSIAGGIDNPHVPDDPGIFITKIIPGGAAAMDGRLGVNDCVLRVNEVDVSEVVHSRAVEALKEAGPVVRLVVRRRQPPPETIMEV

[9] = biological target: T4, DLG3_3, Q92796; conditions: plain residues with an end cap or a label only (N-terminal biotin on a linker: ado-ado)
T4 sequence (Q92796 374-475, limits assumed, looked up): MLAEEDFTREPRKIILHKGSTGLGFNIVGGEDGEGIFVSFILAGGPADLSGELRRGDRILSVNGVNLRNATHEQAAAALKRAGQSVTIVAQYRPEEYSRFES

[10] = biological target: DLG4_1, P78352; conditions: plain residues with an end cap or a label only (N-terminal biotin on a linker: ado-ado)
[11] = biological target: DLG4_2, P78352; conditions: plain residues with an end cap or a label only (N-terminal biotin on a linker: ado-ado)
[12] = biological target: FRMPD2_1, Q68DX3; conditions: plain residues with an end cap or a label only (N-terminal biotin on a linker: ado-ado)
[13] = biological target: GRIP2_5, Q9C0E4; conditions: plain residues with an end cap or a label only (N-terminal biotin on a linker: ado-ado)
[14] = biological target: GRIP2_6, Q9C0E4; conditions: plain residues with an end cap or a label only (N-terminal biotin on a linker: ado-ado)
[15] = biological target: HTRA2, O43464; conditions: plain residues with an end cap or a label only (N-terminal biotin on a linker: ado-ado)
[16] = biological target: IL16_4, Q14005; conditions: plain residues with an end cap or a label only (N-terminal biotin on a linker: ado-ado)
[17] = biological target: Inadl_4, Q8NI35; conditions: plain residues with an end cap or a label only (N-terminal biotin on a linker: ado-ado)
[18] = biological target: Inadl_8, Q8NI35; conditions: plain residues with an end cap or a label only (N-terminal biotin on a linker: ado-ado)
[19] = biological target: Inadl_9, Q8NI35; conditions: plain residues with an end cap or a label only (N-terminal biotin on a linker: ado-ado)
[20] = biological target: MAGI2_2, Q86UL8; conditions: plain residues with an end cap or a label only (N-terminal biotin on a linker: ado-ado)
[21] = biological target: MAGI2_4, Q86UL8; conditions: plain residues with an end cap or a label only (N-terminal biotin on a linker: ado-ado)
[22] = biological target: MAGI3_2, Q5TCQ9; conditions: plain residues with an end cap or a label only (N-terminal biotin on a linker: ado-ado)
[23] = biological target: MAST2, Q6P0Q8; conditions: plain residues with an end cap or a label only (N-terminal biotin on a linker: ado-ado)
[24] = biological target: T5, MPDZ_10, O75970; conditions: plain residues with an end cap or a label only (N-terminal biotin on a linker: ado-ado)
T5 sequence (O75970 1624-1722, limits assumed, looked up): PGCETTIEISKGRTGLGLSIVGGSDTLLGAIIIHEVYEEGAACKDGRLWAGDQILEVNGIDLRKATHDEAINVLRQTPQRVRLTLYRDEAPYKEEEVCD

[25] = biological target: T6, NHERF3_3, Q5T2W1; conditions: plain residues with an end cap or a label only (N-terminal biotin on a linker: ado-ado)
T6 sequence (Q5T2W1 238-333, limits assumed, looked up): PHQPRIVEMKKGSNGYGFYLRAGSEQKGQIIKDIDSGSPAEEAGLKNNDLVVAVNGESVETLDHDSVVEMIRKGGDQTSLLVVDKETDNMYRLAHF

[26] = biological target: NHERF4_1, Q86UT5-2; conditions: plain residues with an end cap or a label only (N-terminal biotin on a linker: ado-ado)
[27] = biological target: NHERF4_4, Q86UT5; conditions: plain residues with an end cap or a label only (N-terminal biotin on a linker: ado-ado)
[28] = biological target: PDZRN4_1, Q6ZMN7; conditions: plain residues with an end cap or a label only (N-terminal biotin on a linker: ado-ado)
[29] = biological target: PTPN3, P26045; conditions: plain residues with an end cap or a label only (N-terminal biotin on a linker: ado-ado)
[30] = biological target: T7, SHANK1, Q9Y566; conditions: plain residues with an end cap or a label only (N-terminal biotin on a linker: ado-ado)
T7 sequence (Q9Y566 658-767, limits assumed, looked up): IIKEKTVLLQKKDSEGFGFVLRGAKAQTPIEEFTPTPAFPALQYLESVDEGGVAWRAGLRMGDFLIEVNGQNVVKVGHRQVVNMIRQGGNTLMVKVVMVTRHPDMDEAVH

[31] = biological target: T8, SNTA1, Q13424
T8 sequence (Q13424 82-180, limits assumed, looked up): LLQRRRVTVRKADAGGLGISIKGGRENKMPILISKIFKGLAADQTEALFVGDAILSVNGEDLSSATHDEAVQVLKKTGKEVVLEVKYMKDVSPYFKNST

[32] = biological target: T9, SNTG1, Q9NSN8; conditions: plain residues with an end cap or a label only (N-terminal biotin on a linker: ado-ado)
T9 sequence (Q9NSN8 52-150, limits assumed, looked up): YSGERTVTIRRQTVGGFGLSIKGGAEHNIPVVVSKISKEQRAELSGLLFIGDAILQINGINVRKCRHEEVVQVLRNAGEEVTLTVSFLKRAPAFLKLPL

[33] = biological target: SNX27, Q96L92; conditions: plain residues with an end cap or a label only (N-terminal biotin on a linker: ado-ado)
[34] = biological target: T10, TIAM2, Q8IVF5; conditions: plain residues with an end cap or a label only (N-terminal biotin on a linker: ado-ado)
T10 sequence (Q8IVF5 885-986, limits assumed, looked up): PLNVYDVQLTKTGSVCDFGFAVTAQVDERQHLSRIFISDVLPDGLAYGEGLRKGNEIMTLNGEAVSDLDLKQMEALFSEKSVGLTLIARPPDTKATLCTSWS

[35] = biological target: TJP1_2, Q07157; conditions: plain residues with an end cap or a label only (N-terminal biotin on a linker: ado-ado)
[36] = biological target: TJP1_3, Q07157; conditions: plain residues with an end cap or a label only (N-terminal biotin on a linker: ado-ado)
[37] = biological target: T11, TX1BP3, O14907; conditions: plain residues with an end cap or a label only (N-terminal biotin on a linker: ado-ado)
T11 sequence (O14907 10-122, limits assumed, looked up): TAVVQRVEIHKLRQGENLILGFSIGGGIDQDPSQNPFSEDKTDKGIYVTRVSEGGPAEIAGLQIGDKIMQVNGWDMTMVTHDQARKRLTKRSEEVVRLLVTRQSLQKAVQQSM

[38] = biological target: T12, APBA1_2, Q02410; conditions: plain residues with an end cap or a label only (N-terminal biotin on a linker: ttds)
T12 sequence (Q02410 742-832, limits assumed, looked up): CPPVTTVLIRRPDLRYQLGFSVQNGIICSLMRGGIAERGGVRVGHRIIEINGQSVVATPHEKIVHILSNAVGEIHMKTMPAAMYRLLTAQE

[39] = biological target: T13, ARHGAP21, Q5T5U3; conditions: plain residues with an end cap or a label only (N-terminal biotin on a linker: ttds)
T13 sequence (Q5T5U3 45-169, limits assumed, looked up): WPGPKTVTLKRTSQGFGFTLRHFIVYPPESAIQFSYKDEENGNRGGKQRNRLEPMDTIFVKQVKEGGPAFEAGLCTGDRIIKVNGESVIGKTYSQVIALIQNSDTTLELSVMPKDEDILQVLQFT

[40] = biological target: FRMPD3, Q5JV73; conditions: plain residues with an end cap or a label only (N-terminal biotin on a linker: ttds)
[41] = biological target: GIPC2, Q8TF65; conditions: plain residues with an end cap or a label only (N-terminal biotin on a linker: ttds)
[42] = biological target: GRID2IP_2, A4D2P6; conditions: plain residues with an end cap or a label only (N-terminal biotin on a linker: ttds)
[43] = biological target: Inadl_1, Q8NI35; conditions: plain residues with an end cap or a label only (N-terminal biotin on a linker: ttds)
[44] = biological target: T14, LRRC7, Q96NW7; conditions: plain residues with an end cap or a label only (N-terminal biotin on a linker: ttds)
T14 sequence (Q96NW7 1440-1537, limits assumed, looked up): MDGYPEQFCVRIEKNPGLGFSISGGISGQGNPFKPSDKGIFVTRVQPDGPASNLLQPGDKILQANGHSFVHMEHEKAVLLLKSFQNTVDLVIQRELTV

[45] = biological target: T15, PARD3B_1, Q8TEW8; conditions: plain residues with an end cap or a label only (N-terminal biotin on a linker: ttds)
T15 sequence (Q8TEW8 196-299, limits assumed, looked up): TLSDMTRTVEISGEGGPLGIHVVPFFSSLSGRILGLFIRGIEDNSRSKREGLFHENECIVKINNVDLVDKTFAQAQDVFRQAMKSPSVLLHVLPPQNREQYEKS

[46] = biological target: T16, PDZD2_2, O15018; conditions: plain residues with an end cap or a label only (N-terminal biotin on a linker: ttds)
T16 sequence (O15018 329-429, limits assumed, looked up): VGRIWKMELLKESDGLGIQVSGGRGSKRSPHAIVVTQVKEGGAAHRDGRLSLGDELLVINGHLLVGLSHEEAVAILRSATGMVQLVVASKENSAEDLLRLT

[47] = biological target: T17, SYNJ2BP, P57105; conditions: plain residues with an end cap or a label only (N-terminal biotin on a linker: ttds)
T17 sequence (P57105 8-110, limits assumed, looked up): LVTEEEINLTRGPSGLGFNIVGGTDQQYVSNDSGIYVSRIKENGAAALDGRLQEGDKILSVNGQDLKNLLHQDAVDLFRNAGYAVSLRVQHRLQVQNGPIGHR

[48] = plain residues with an end cap or a label only (N-terminal biotin on a linker: ado-ado)
[49] = plain residues with an end cap or a label only (N-terminal biotin on a linker: ttds)

Sequence of Inadl_8, Q8NI35 (Q8NI35 1425-1530): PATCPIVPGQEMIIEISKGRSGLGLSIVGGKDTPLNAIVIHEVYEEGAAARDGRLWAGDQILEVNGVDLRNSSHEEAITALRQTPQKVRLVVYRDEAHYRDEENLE
Sequence of MAGI2_4, Q86UL8 (Q86UL8 772-865): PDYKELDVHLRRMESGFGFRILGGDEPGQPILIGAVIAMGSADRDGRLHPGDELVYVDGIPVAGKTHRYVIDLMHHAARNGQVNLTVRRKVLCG
Sequence of ARHGEF12, Q9NZN5-2 (Q9NZN5 other isoform, or with tags, fused parts or gaps): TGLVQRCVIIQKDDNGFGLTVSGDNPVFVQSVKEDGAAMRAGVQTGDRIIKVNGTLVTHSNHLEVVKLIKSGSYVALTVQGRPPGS
Sequence of DLG1_3, Q12959 (Q12959 457-571): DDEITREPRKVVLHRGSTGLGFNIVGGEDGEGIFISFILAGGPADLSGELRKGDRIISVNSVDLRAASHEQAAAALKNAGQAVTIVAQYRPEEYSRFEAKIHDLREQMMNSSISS
Sequence of GIPC2, Q8TF65 (Q8TF65 112-203): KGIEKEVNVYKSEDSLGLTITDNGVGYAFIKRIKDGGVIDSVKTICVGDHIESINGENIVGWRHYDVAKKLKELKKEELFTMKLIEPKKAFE
Sequence of IL16_4, Q14005 (Q14005 1229-1329): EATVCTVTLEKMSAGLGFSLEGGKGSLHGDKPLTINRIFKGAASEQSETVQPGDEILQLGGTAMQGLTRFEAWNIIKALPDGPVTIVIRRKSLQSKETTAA
Sequence of GRID2IP_2, A4D2P6 (A4D2P6 272-370): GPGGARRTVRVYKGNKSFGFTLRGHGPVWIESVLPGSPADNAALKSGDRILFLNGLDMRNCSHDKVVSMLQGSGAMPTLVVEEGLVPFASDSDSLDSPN
Sequence of Inadl_4, Q8NI35 (Q8NI35 547-651): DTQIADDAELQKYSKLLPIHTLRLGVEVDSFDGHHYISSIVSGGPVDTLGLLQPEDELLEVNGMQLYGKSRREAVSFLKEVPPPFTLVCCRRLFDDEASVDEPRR
Sequence of PDZRN4_1, Q6ZMN7 (Q6ZMN7 213-318): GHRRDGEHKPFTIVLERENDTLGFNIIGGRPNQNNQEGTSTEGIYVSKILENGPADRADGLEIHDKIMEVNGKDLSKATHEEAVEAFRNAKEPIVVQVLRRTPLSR
Sequence of TJP1_2, Q07157 (Q07157 181-274): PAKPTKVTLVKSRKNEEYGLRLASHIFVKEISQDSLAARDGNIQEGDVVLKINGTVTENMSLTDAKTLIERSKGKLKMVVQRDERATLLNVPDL
Sequence of HTRA2, O43464 (O43464 355-458): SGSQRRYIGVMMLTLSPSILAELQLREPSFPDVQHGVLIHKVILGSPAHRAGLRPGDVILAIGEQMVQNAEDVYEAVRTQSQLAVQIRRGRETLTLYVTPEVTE
Sequence of DLG1_2, Q12959 (Q12959 314-412): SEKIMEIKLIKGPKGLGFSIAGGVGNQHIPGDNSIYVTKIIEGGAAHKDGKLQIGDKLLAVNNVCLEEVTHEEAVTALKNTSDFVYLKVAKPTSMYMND
Sequence of MAST2, Q6P0Q8 (Q6P0Q8 1099-1202): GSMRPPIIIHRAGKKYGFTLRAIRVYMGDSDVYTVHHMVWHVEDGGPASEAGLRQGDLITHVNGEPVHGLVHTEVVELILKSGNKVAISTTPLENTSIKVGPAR
Sequence of Inadl_9, Q8NI35 (Q8NI35 1530-1615): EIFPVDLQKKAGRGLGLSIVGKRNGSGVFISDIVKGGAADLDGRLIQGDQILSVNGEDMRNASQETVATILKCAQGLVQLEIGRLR
Sequence of Inadl_1, Q8NI35 (Q8NI35 113-229): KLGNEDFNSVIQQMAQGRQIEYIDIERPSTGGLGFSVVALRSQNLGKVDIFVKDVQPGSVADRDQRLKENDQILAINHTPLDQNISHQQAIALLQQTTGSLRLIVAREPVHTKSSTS
Sequence of GRIP2_5, Q9C0E4 (Q9C0E4 544-642): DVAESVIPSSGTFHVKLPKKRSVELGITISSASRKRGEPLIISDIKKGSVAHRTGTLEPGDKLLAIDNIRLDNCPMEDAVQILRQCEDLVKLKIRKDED
Sequence of DLG2_2, Q15700 (Q15700 189-283): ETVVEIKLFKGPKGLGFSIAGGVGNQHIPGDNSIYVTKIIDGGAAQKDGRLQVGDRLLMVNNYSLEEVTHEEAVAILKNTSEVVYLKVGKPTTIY
Sequence of MAGI3_2, Q5TCQ9 (Q5TCQ9 398-503): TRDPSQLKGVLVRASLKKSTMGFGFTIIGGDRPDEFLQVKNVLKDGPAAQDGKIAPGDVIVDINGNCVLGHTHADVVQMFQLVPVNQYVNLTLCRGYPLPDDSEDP
Sequence of NHERF4_4, Q86UT5 (Q86UT5 464-550): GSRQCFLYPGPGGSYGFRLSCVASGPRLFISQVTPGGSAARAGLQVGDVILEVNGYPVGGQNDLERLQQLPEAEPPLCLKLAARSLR
Sequence of FRMPD2_1, Q68DX3 (Q68DX3 770-861): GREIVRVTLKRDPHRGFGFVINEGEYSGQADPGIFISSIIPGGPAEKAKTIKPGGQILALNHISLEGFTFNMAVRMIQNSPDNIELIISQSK
Sequence of FRMPD3, Q5JV73 (Q5JV73 12-100): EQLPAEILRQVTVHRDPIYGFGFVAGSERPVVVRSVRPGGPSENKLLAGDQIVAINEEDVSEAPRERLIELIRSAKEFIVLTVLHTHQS
Sequence of GRIP2_6, Q9C0E4 (Q9C0E4 648-740): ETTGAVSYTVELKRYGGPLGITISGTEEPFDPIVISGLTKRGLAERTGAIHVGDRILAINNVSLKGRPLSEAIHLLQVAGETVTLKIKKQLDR
Sequence of DLG4_2, P78352 (P78352 155-259): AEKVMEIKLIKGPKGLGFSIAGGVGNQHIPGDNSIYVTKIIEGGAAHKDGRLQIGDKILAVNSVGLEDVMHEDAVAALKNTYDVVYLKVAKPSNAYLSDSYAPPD
Sequence of CASK, O14936 (O14936 487-570): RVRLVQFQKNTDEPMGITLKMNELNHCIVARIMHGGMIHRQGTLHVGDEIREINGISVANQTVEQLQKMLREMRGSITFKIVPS
Sequence of MAGI2_2, Q86UL8 (Q86UL8 410-522): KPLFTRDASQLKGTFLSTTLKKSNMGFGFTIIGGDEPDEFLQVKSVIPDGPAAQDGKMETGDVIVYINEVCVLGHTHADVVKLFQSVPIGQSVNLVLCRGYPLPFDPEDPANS
Sequence of PTPN3, P26045 (P26045 505-587): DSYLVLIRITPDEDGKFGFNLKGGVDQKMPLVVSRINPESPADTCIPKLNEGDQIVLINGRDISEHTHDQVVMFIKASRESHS
Sequence of DLG4_1, P78352 (P78352 62-152): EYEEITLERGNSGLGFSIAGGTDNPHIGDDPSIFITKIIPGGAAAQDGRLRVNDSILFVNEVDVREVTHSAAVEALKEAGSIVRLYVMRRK
Sequence of NHERF4_1, Q86UT5-2 (Q86UT5 other isoform, or with tags, fused parts or gaps): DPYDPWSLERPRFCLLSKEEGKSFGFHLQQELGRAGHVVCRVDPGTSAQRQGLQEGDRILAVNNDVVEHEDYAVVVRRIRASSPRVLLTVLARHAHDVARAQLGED
Sequence of TJP1_3, Q07157 (Q07157 416-512): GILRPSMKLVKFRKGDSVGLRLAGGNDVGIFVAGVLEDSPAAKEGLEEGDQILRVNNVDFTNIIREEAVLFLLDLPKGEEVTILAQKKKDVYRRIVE

- pKd [1]: 3.5
- pKd [2, 48]: 3.89
- pKd [3]: 3.68
- pKd [4]: 3.48
- pKd [5]: 3.67
- pKd [6]: 3.69
- pKd [7]: 3.48
- pKd [8]: 3.63
- pKd [9]: 3.81
- pKd [10]: 3.56
- pKd [11]: 3.79
- pKd [12]: 3.47
- pKd [13]: 3.59
- pKd [14]: 3.55
- pKd [15]: 3.68
- pKd [16]: 3.65
- pKd [17]: 3.49
- pKd [18]: 3.69
- pKd [19]: 3.49
- pKd [20]: 3.51
- pKd [21]: 3.55
- pKd [22]: 3.5
- pKd [23]: 3.62
- pKd [24]: 3.48
- pKd [25]: 3.75
- pKd [26]: 3.6
- pKd [27]: 3.8
- pKd [28]: 3.68
- pKd [29]: 3.71
- pKd [30]: 3.52
- pKd [31, 48]: 3.49
- pKd [32]: 3.5
- pKd [33]: 3.8
- pKd [34]: 3.64
- pKd [35]: 3.88
- pKd [36]: 3.61
- pKd [37]: 3.88
Binder: KSGKQTMLVV [TRIM29, Q14134]

- pKd [38]: 3.5
- pKd [39]: 3.82
- pKd [2, 49]: 3.69
- pKd [40]: 3.65
- pKd [41]: 3.61
- pKd [42]: 3.63
- pKd [43]: 3.51
- pKd [44]: 3.49
- pKd [45]: 3.54
- pKd [46]: 3.82
- pKd [31, 49]: 3.88
- pKd [47]: 3.8
Binder: NDPAWDETNL [ARHGEF7, Q14155]
